Data published in IntAct's records for PubMed 39009827.

B1: Epithelial sodium channel subunit beta (Homo sapiens), P51168 (parent)
chain: MHVKKYLLKGLHRLQKGPGYTYKELLVWYCDNTNTHGPKRIICEGPKKKAMWFLLTLLFAALVCWQWGIFIRTYLSWEVSVSLSVGFKTMDFPAVTICNASPFKYSKIKHLLKDLDELMEAVLERILAPELSHANATRNLNFSIWNHTPLVLIDERNPHHPMVLDLFGDNHNGLTSSSASEKICNAHGCKMAMRLCSLNRTQCTFRNFTSATQALTEWYILQATNIFAQVPQQELVEMSYPGEQMILACLFGAEPCNYRNFTSIFYPHYGNCYIFNWGMTEKALPSANPGTEFGLKLILDIGQEDYVPFLASTAGVRLMLHEQRSYPFIRDEGIYAMSGTETSIGVLVDKLQRMGEPYSPCTVNGSEVPVQNFYSDYNTTYSIQACLRSCFQDHMIRNCNCGHYLYPLPRGEKYCNNRDFPDWAHCYSDLQMSVAQRETCIGMCKESCNDTQYKMTISMADWPSEASEDWIFHVLSQERDQSTNITLSRKGIVKLNIYFQEFNYRTIEESAANNIVWLLSNLGGQFGFWMGGSVLCLIEFGEIIIDFVWITIIKLVALAKSLRQRRAQASYAGPPPTVAELVEAHTNFGFQPDTAPRSPNTGPYPSEQALPIPGTPPPNYDSLRLQPLDVIESDSEGDAI
B2: LIM domain-binding protein 3 (Homo sapiens), O75112 (parent)
chain: MSYSVTLTGPGPWGFRLQGGKDFNMPLTISRITPGSKAAQSQLSQGDLVVAIDGVNTDTMTHLEAQNKIKSASYNLSLTLQKSKRPIPISTTAPPVQTPLPVIPHQKDPALDTNGSLVAPSPSPEARASPGTPGTPELRPTFSPAFSRPSAFSSLAEASDPGPPRASLRAKTSPEGARDLLGPKALPGSSQPRQYNNPIGLYSAETLREMAQMYQMSLRGKASGVGLPGGSLPIKDLAVDSASPVYQAVIKSQNKPEDEADEWARRSSNLQSRSFRILAQMTGTEFMQDPDEEALRRSSTPIEHAPVCTSQATTPLLPASAQPPAAASPSAASPPLATAAAHTAIASASTTAPASSPADSPRPQASSYSPAVAASSAPATHTSYSEGPAAPAPKPRVVTTASIRPSVYQPVPASTYSPSPGANYSPTPYTPSPAPAYTPSPAPAYTPSPVPTYTPSPAPAYTPSPAPNYNPAPSVAYSGGPAEPASRPPWVTDDSFSQKFAPGKSTTSISKQTLPRGGPAYTPAGPQVPPLARGTVQRAERFPASSRTPLCGHCNNVIRGPFLVAMGRSWHPEEFTCAYCKTSLADVCFVEEQNNVYCERCYEQFFAPLCAKCNTKIMGEVMHALRQTWHTTCFVCAACKKPFGNSLFHMEDGEPYCEKDYINLFSTKCHGCDFPVEAGDKFIEALGHTWHDTCFICAVCHVNLEGQPFYSKKDRPLCKKHAHTINL

Variants of: B1
Settings: with nedd4_human NEDD4, P46934
Sequence of nedd4_human NEDD4, P46934 (P46934 whole entry): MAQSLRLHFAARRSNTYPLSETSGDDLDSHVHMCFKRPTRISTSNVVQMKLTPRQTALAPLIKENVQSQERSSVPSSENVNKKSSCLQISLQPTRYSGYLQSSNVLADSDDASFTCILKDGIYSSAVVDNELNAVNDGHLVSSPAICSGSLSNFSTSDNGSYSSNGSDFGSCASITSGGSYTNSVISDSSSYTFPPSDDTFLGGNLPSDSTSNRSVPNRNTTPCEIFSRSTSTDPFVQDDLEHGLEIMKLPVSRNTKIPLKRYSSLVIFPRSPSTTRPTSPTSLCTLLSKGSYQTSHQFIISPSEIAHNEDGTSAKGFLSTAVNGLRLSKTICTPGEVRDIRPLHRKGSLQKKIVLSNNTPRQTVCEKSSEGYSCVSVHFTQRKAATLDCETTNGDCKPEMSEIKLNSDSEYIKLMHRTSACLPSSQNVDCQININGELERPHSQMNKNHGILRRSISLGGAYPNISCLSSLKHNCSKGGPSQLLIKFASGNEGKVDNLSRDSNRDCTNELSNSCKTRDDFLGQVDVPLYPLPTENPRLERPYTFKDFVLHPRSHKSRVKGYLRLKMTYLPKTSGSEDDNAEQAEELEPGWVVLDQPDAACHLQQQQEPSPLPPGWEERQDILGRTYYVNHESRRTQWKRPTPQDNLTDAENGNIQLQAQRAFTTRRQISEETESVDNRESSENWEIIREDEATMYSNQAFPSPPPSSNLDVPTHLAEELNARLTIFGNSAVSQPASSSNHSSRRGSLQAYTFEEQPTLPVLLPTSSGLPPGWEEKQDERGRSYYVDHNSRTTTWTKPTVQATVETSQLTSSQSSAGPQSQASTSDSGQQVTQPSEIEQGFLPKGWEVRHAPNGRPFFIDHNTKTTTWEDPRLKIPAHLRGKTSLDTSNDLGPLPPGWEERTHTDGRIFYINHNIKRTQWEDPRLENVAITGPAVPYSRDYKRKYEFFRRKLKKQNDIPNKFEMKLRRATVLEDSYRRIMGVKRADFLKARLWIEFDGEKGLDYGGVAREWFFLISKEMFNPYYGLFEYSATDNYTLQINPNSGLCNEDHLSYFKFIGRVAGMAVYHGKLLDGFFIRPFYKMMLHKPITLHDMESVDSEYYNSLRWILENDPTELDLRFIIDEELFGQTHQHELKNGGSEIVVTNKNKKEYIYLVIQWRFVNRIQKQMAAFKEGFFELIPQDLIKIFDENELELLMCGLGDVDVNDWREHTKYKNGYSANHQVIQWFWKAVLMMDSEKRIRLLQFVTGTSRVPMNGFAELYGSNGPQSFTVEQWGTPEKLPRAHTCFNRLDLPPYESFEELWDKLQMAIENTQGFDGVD

| Variant | effect of a mutation on the interaction |
| --- | --- |
| P616R | decreasing interaction strength |

Variants of: B1
Settings: with nedd4_human NEDD4, P46934
Remark: another data set of the same source

| Variant | effect of a mutation on the interaction |
| --- | --- |
| P618R | decreasing interaction strength |
| Y620H | decreasing interaction strength |
| P617S | decreasing interaction strength |

Variants of: B1
Settings: with wwtr1_human WWTR1, Q9GZV5
Sequence of wwtr1_human WWTR1, Q9GZV5 (Q9GZV5 whole entry): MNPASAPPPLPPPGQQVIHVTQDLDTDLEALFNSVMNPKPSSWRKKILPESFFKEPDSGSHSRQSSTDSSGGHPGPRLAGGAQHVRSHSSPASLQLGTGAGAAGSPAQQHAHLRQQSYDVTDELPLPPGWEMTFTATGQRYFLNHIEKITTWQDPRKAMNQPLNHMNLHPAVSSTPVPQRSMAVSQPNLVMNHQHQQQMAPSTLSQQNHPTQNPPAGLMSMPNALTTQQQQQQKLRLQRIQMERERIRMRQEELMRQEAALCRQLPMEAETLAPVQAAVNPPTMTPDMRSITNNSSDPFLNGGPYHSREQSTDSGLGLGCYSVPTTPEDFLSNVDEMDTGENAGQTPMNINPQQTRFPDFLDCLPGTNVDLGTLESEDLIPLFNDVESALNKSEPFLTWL

| Variant | effect of a mutation on the interaction |
| --- | --- |
| P618R | decreasing interaction strength |
| Y620H | decreasing interaction strength |
| P617S | decreasing interaction strength |

Variants of: B2
Settings: with src_human SRC

| Variant | effect of a mutation on the interaction |
| --- | --- |
| P99S | decreasing interaction strength |
